± gives the uncertainty stated by the source.
Test: self-splicing fitness, log relative to wild type (ln ratio); higher = more splicing; Tetrahymena group I intron in knt gene, E. coli kanamycin selection, DiMSum; sequences stand for … in CUCUCU…GGAGGGAAAAGUUAUCAGGCAUGCACCUGGUAGCUAGUCUUUAAACCAAUAGAUUGCAUCGGUUUAAAAGGCAAGACCGUCAAAUUGCGGGAAAGGGGUCAACAGCCGUUCAGUACCAAGUCUCAGGGGAAACUUUGAGAUGGCCUUGCAAAGGGUAUGGUAAUAAGCUGACGGACAUGGUCCUAACCACGCAGCCAAGUCCUAAGUCAACAGAUCUUCUGUUGAUAUGGAUGCAGUUCACAGACUAAAUGUCGGUCGGGGAAGAUGUAUUCUUCUCAUAAGAUAUAGUCGGACCUCUCCUUAAUGGGAGCUAGCGGAUGAAGUGAUGCAACACUGGAGCCGCUGGGAACUAAUUUGUAUGCGAAAGUAUAUUGAUUAGUUUUGGAGUACUCGUGGUCG
Procedure, shortened: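 A randomised library covering all eight P1ex-region intron nucleotides was built with the intron in the knt kanamycin-resistance gene on pET-22b(+) and held in E. coli BL21(DE3). Cells were grown overnight at 37°C or 30°C on LB agar, with or without 25 μg/mL kanamycin, plus 100 μg/mL carbenicillin, 50 μM IPTG and 0.2% rhamnose, and pooled colonies were amplicon-sequenced on an Illumina HiSeq 2500. DiMSum fitness is the error-weighted combination of wild-type-normalised replicate fold changes, kanamycin versus none.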

| Sequence | self-splicing fitness (ln) (30 °C) | self-splicing fitness (ln) (37 °C) |
| --- | --- | --- |
| UUCGAGCAAUAUUACGCCAA | -2.89 ± 0.48 | -2.07 ± 0.27 |
| GUAAAGCAAUAUUACGCAGA | -2.79 ± 0.22 | -0.446 ± 0.17 |
| CUAGAGCAAUAUUACGGAAU | -3.15 ± 0.27 | -2.82 ± 0.38 |
| GUACAGCAAUAUUACGUUCG | -1.45 ± 0.061 | -0.316 ± 0.079 |
| GUCAAGCAAUAUUACGCGAU | -4.38 ± 0.28 | -3.64 ± 0.39 |
| CCUGAGCAAUAUUACGUGAA | -4.54 ± 0.34 | -2.83 ± 0.21 |
| CCCCAGCAAUAUUACGGGGU | -3.9 ± 0.12 | -2.54 ± 0.11 |
| UAGUAGCAAUAUUACGUCAU | -3.57 ± 0.37 |  |
| GAAGAGCAAUAUUACGCGGA | -2.64 ± 0.17 | -2.37 ± 0.21 |
| GCUAAGCAAUAUUACGCAUA | -1.97 ± 0.11 | -1.5 ± 0.093 |
| GGCAAGCAAUAUUACGUAGU | -1.52 ± 0.098 | -0.197 ± 0.11 |
| CUACAGCAAUAUUACGGAUU | -3.46 ± 0.14 | -2.5 ± 0.21 |
| UACAAGCAAUAUUACGACGU | -0.941 ± 0.07 | -0.409 ± 0.081 |
| GGUCAGCAAUAUUACGGUCC | -3.1 ± 0.39 | -1.81 ± 0.37 |
| UACAAGCAAUAUUACGUGAA | -2.42 ± 0.078 | -1.7 ± 0.1 |
| UAACAGCAAUAUUACGUUCC | -2.23 ± 0.11 | -2.28 ± 0.18 |
| GCACAGCAAUAUUACGUCGC | -3.17 ± 0.13 | -1.67 ± 0.12 |
| UUGCAGCAAUAUUACGAAUU | -2.18 ± 0.18 | -0.985 ± 0.19 |
| AAGUAGCAAUAUUACGCGUC | -1.96 ± 0.12 | -2 ± 0.19 |
| GCUAAGCAAUAUUACGUAAU | -0.775 ± 0.088 | -0.189 ± 0.11 |
| AUGGAGCAAUAUUACGCCAU | -4.27 ± 0.46 | -2.17 ± 0.34 |
| GCACAGCAAUAUUACGAAUG | -1.89 ± 0.051 | -1.09 ± 0.063 |
| AUCAAGCAAUAUUACGCGAG | -1.3 ± 0.081 | -0.224 ± 0.086 |
| CCAGAGCAAUAUUACGGUGU | -3.53 ± 0.16 | -2.7 ± 0.2 |

| Sequence | self-splicing fitness (ln) (30 °C) | self-splicing fitness (ln) (37 °C) |
| --- | --- | --- |
| UAACAGCAAUAUUACGGUUC | -2.65 ± 0.069 | -1.28 ± 0.08 |
| CCUAAGCAAUAUUACGCUAU | -4.71 ± 0.39 | -2.35 ± 0.24 |
| CAGAAGCAAUAUUACGUCUC | -1.79 ± 0.07 | -0.536 ± 0.084 |
| GCGAAGCAAUAUUACGUGAA | -2.3 ± 0.14 | -0.526 ± 0.14 |
| CUGCAGCAAUAUUACGCAUU | -4.22 ± 0.2 | -2.21 ± 0.23 |
| CCAAAGCAAUAUUACGUUGG | -4.54 ± 0.27 | -3.32 ± 0.29 |
| AAUUAGCAAUAUUACGGUCC | -0.652 ± 0.12 | 0.122 ± 0.15 |
| UAGCAGCAAUAUUACGUGGU | -3.87 ± 0.2 | -2.79 ± 0.16 |
| CUAUAGCAAUAUUACGAGUA | -2.86 ± 0.41 | -1.62 ± 0.23 |
| UGCCAGCAAUAUUACGCUGU | -3.59 ± 0.37 | -1.37 ± 0.17 |
| GAGGAGCAAUAUUACGACCU | -2.45 ± 0.41 |  |
| GCACAGCAAUAUUACGUUAG | -2.6 ± 0.091 | -1.85 ± 0.11 |
| CUUGAGCAAUAUUACGUUGA | -3.17 ± 0.27 | -1.97 ± 0.22 |
| CUUCAGCAAUAUUACGCGGA | -1.83 ± 0.21 | -2.74 ± 0.3 |
| AACUAGCAAUAUUACGUGGG | -3.79 ± 0.23 | -2.38 ± 0.17 |
| AGUUAGCAAUAUUACGAAGU | -2.91 ± 0.17 | -1.47 ± 0.15 |
| UUGAAGCAAUAUUACGGUCU | -0.0588 ± 0.058 | -0.0885 ± 0.075 |
| UUUAAGCAAUAUUACGCGGC |  | -2.78 ± 0.31 |
| AGUGAGCAAUAUUACGAGGA | -2.48 ± 0.32 | -3.09 ± 0.35 |
| GACGAGCAAUAUUACGCGGC | -3.25 ± 0.29 |  |
| AAAAAGCAAUAUUACGACAC | -0.799 ± 0.094 | -0.575 ± 0.13 |
| AUCUAGCAAUAUUACGCUUG | -1.85 ± 0.12 | -1.36 ± 0.14 |
| CUAGAGCAAUAUUACGACCU | -3.67 ± 0.27 | -2.99 ± 0.33 |
| UUGAAGCAAUAUUACGAAUA | -0.868 ± 0.12 | -1.13 ± 0.15 |
